Source: patent US20090010966A1

Columns and labels:
[1] = molecular target: elongation factor 2 (EF2) (UniProt P55823)
[2] = molecular target: elongation factor 2 (EF2) (rabbit) (UniProt P55823); assay: cell-based or functional assay

Substance	Relative IVTT score (ratio (IC50 WT / IC50 mutant)) [1]	inhibition of transcription/translation of T7-luc plasmid (IVTT) [2]
DT382 V28S	3.61	–
control DT(ΔR), truncated DT comprising the C and I domains only (from UniProt P00588 33-414) (enzyme)	–	90%
